The results in this text go back to paper PMC11555231 (2024).

Assay [1] concerns the target T1, N-terminally biotinylated recombinant human PADI4 (bio-His-PADI4) (human, UniProt Q9UM07 1-663, biotin on the N-terminal Avi-Tag (BirA)). Kind of assay: SPR. For orientation: SPR reads the build-up and loss of mass on a sensor chip optically.
Assay [2] addresses T1, N-terminally biotinylated recombinant …. Kind of assay: SPR. This is another data set of the same source.

Like-named read-outs stand apart in the source and are kept apart here. Ends that are not written are not given here.

T1 sequence (Q9UM07 whole entry): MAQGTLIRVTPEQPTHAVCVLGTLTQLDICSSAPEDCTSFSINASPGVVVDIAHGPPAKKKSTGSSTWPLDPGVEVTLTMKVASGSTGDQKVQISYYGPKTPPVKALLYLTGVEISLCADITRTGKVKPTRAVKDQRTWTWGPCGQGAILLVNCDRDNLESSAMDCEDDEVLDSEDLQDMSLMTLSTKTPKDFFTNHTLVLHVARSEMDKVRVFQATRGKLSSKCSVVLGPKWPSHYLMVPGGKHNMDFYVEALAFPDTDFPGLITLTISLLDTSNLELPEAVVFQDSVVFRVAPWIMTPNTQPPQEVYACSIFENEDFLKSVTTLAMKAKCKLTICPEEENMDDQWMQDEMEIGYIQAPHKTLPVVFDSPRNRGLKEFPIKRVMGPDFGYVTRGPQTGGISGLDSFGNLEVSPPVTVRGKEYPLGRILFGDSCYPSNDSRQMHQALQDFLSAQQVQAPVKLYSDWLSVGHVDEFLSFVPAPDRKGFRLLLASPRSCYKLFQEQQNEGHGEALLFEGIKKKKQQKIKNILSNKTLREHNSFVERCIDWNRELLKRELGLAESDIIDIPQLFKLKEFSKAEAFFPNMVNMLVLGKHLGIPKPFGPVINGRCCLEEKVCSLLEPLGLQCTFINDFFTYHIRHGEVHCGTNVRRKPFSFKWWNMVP

B1: PADI4_3_Y6H (peptide)
chain: YRDHHHRHPKYCG
Broadly, the Kd is the equilibrium constant for the complex coming apart. For the molecule B1, in assay [1], the Kd is 30 nM.

B2: PADI4_11 analogue with R5 replaced by alanine (peptide)
chain: YESCAYRQVLQL
modifications: as PADI4_11: thioether cyclisation between the N-terminus and the side chain of C4; C-terminal amide
With B2, the dissociation constant (Kd) in assay [2] worked out at 34000 nM.

B3: PADI4_11 analogue with C4 replaced by alanine (peptide)
chain: YESARYRQVLQL-NH2
Turning to B3, the dissociation constant Kd in assay [2] was determined as 118000 nM.

B4: PADI4_11 (peptide)
peptide: YESCRYRQVLQL
modifications: not fully specified; L-tyrosine at position 1; cyclised via a thioether bond between the N-terminus (chloroacetylated) and the side chain of C4; C-terminal amide
Consider B4, for which the Kd in assay [2] was determined as 500 nM.

B5: PADI4_11 Y1A (peptide)
chain: AESCRYRQVLQL
On to B5, for which, in assay [2], the Kd is 11100 nM.

B6: PADI4_3 variant with R7 replaced by asparagine (peptide)
chain: YRDHHYNHPKYCG
modifications: as PADI4_3: D-tyrosine at position 1; thioether cyclisation between the N-terminus and the cysteine side chain; C-terminal amide
Turning to B6, the Kd in assay [1] came to 41 nM.

B7: PADI4_11 analogue with E2 replaced by glutamine (peptide)
chain: YQSCRYRQVLQL
modifications: as PADI4_11: thioether cyclisation between the N-terminus and the side chain of C4; C-terminal amide
As to B7, in assay [2], the Kd was 20000 nM.

B8: PADI4_3_K10I (peptide)
chain: YRDHHYRHPIYCG
In the case of B8, the Kd in assay [1] worked out at 4 nM.

B9: PADI4_3_K10V (peptide)
chain: YRDHHYRHPVYCG
B9: the Kd in assay [1] stood at 5 nM.

B10: PADI4_11 analogue with R7 replaced by lysine (peptide)
chain: YESCRYKQVLQL
modifications: as PADI4_11: thioether cyclisation between the N-terminus and the side chain of C4; C-terminal amide
Turning to B10, the Kd in assay [2] was found to be 700 nM.

B11: PADI4_11 analogue with E2 replaced by aspartic acid (peptide)
chain: YDSCRYRQVLQL
modifications: as PADI4_11: thioether cyclisation between the N-terminus and the side chain of C4; C-terminal amide
Regarding B11, the Kd in assay [2] came out at 41000 nM.

B12: PADI4_11 analogue with R5 replaced by lysine (peptide)
chain: YESCKYRQVLQL
modifications: as PADI4_11: thioether cyclisation between the N-terminus and the side chain of C4; C-terminal amide
For B12, the Kd in assay [2] was 1400 nM.

B13: PADI4_11 V9A (peptide)
chain: YESCRYRQALQL
Consider B13, for which the equilibrium dissociation constant (Kd) in assay [2] turned out to be 14000 nM.

B14: PADI3_H4R_K10_I (peptide)
peptide: YRDRHYRHPIYCG
modifications: D-tyrosine at position 1; N-terminus joined to the side chain of Cys12 by a thioether bond (cyclic); C-terminal amide
Turning to B14, the Kd in assay [1] was found to be 7 nM.

B15: PADI4_11 Y6A (peptide)
chain: YESCRARQVLQL
Consider B15, for which the Kd in assay [2] was 13000 nM.

B16: PADI4_3_dY1(OMe)Y (peptide)
chain: YRDHHYRHPKYCG
Turning to B16, the Kd in assay [1] was determined as 23 nM.

B17: PADI4_11 analogue with E2 replaced by alanine (peptide)
chain: YASCRYRQVLQL
modifications: as PADI4_11: thioether cyclisation between the N-terminus and the side chain of C4; C-terminal amide
With B17, the Kd in assay [2] was found to be 114000 nM.

B18: PADI4_11 analogue with R7 replaced by alanine (peptide)
chain: YESCRYAQVLQL
modifications: as PADI4_11: thioether cyclisation between the N-terminus and the side chain of C4; C-terminal amide
Consider B18, for which the Kd in assay [2] is 4000 nM.

B19: PADI4_11 Q8A (peptide)
chain: YESCRYRAVLQL
For the molecule B19, in assay [2], the Kd was 500 nM.

B20: PADI4_3 variant with R7 replaced by alanine (peptide)
chain: YRDHHYAHPKYCG
modifications: as PADI4_3: D-tyrosine at position 1; thioether cyclisation between the N-terminus and the cysteine side chain; C-terminal amide
Take B20: the equilibrium dissociation constant (Kd) in assay [1] came to 8 nM.

B21: PADI4_11 L10A (peptide)
chain: YESCRYRQVAQL
As for B21, the equilibrium dissociation constant (Kd) in assay [2] turned out to be 300 nM.

B22: PADI4_11 L12A (peptide)
chain: YESCRYRQVLQA
With B22, the Kd in assay [2] stood at 5100 nM.

B23: PADI4_11 S3A (peptide)
chain: YEACRYRQVLQL
Consider B23, for which, in assay [2], the Kd was determined as 160 nM.

B24: PADI4_11 Q11A (peptide)
chain: YESCRYRQVLAL
For the molecule B24, the dissociation constant (Kd) in assay [2] turned out to be 310 nM.

B25: PADI4_3 variant with R7 replaced by tryptophan (peptide)
chain: YRDHHYWHPKYCG
modifications: as PADI4_3: D-tyrosine at position 1; thioether cyclisation between the N-terminus and the cysteine side chain; C-terminal amide
As for B25, in assay [1], the Kd was 6 nM.

B26: 11B (peptide)
chain: YESCRY
As to B26, the Kd in assay [2] is above 2000 nM.
